# Numbering of substitutions follows the chain as printed.
# T1: human GITR (human, UniProt Q9Y5U5 26-241)
# T1 sequence: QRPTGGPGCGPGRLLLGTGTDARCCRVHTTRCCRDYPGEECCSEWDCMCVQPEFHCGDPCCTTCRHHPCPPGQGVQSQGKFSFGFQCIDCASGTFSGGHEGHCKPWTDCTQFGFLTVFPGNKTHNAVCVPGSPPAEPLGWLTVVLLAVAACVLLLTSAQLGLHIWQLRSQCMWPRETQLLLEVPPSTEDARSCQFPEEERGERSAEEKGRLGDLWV
# T2: cynomolgus monkey GITR (cynomolgus monkey, UniProt Q9Y5U5 26-241 (human entry))
# T2 construct: also called cyno GITR
# T2 chain: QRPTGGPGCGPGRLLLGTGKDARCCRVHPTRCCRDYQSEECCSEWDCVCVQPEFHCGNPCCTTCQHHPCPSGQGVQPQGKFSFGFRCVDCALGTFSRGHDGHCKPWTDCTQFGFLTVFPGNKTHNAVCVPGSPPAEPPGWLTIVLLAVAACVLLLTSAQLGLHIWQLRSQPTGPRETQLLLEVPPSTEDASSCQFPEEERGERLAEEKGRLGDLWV
# B1: 7A10v1 (antibody, human IgG1, kappa, V domains shown)
# VH: QVQLVESGGGVVQPGRSLRLSCAASGFTFSSYGMHWVRQAPGKGLEWMAVIWYVGSNKYYADSVKGRFTISRDNSKNTLYLQMNSLRAEDTAVYYCARGGELGRDYYSGMDVWGQGTTVTVSS
# VL: DIQMTQSPSSLSASVGDRVTITCRASQGIRNDLGWYQQKPGKAPKRLIYAASSLQSGVPSRFSGSGSGTEFTLTISSLQPEDFATYYCQQHNSYPWTFGQGTKVEIKR
# notes: Engineered variant; also called Ab39; SS-13810
# B2: 9H6v3 (antibody, human IgG1, kappa, V domains shown)
# VH: B1 VH with A23V, V37I, M48V, V54E, D62E, E101R, R104K
# VL: B1 VL with A51T, Q89L, S93T
# notes: Engineered variant; also called Ab46; SS-13806
# B3: 41G5v2 (antibody, human IgG1, kappa, V domains shown)
# VH: B1 VH with M48V, V54P, D62E, D105Y, S108Y
# VL: B1 VL with I21V, Q89L, S93N, E105D
# notes: Engineered variant; also called Ab56; SS-13809
# B4: 33C9v2 (antibody, human IgG1, kappa, V domains shown)
# VH: B1 VH with L4V, M48V, A49S, V54E, D62E, E101L, R104Y, D105Y, S108Y
# VL: B1 VL with A50D, Q89L, N92H
# notes: Engineered variant; also called Ab51; SS-13808
# B5: 5H7v2 (antibody, human IgG1, kappa, V domains shown)
# VH: QVQLQESGPGLVKPSETLSLTCTVSGGSISSGGYFWSWIRQPPGKGLEWIGYIYYSGTTYYNPSLKSRVTISIDTSKNQFSLKLSSVTAADTAVYYCARDLFYYDTSGPRGFDPWGQGTLVTVSS
# VL: EIVLTQSPGTLSLSPGERATLSCRASQTVSSNYLAWYQQKPGQAPRLLIYGSSTRATGIPDRFSGSGSGTDFTLTISRLEPEDFAVYYCQQYDSSPWTFGQGTKVEIKR
# notes: Engineered variant; also called Ab26; SS-13807
# Molecular target: T1, human GITR
# Assay: cell-based or functional assay
Binder,Proliferation (Fold over CD3),Proliferation EC50
B1,3 fold over CD3,3 ng/mL
B2,3.7 fold over CD3,6 ng/mL
B3,3.5 fold over CD3,3 ng/mL
B4,2.9 fold over CD3,7 ng/mL
B5,3.2 fold over CD3,11 ng/mL

# Molecular target: T2, cynomolgus monkey GITR
# Assay: flow cytometry, cyno T cell binding
row,Binder,EC50
1,B1,173 ng/mL
2,B2,184 ng/mL
3,B3,153 ng/mL
4,B4,301 ng/mL
5,B5,619 ng/mL

# Molecular target: T1, human GITR
# Assay: flow cytometry on activated human T cells
row,Binder,EC50
1,B1,56 ng/mL
2,B2,90 ng/mL
3,B3,57 ng/mL
4,B4,60 ng/mL
5,B5,279 ng/mL

# Molecular target: T1, human GITR
# Assay: cell-based or functional assay
# Remark: another data set of the same source
Binder,Activation EC50 ng/mL (IFNg secretion),Proliferation (Fold over CD3)
B1,0.32 ng/mL,3 fold over CD3
B2,0.06 ng/mL,3.7 fold over CD3
B3,0.64 ng/mL,3.5 fold over CD3
B4,0.86 ng/mL,2.9 fold over CD3
B5,1.6 ng/mL,3.2 fold over CD3

# Molecular target: T2, cynomolgus monkey GITR
# Assay: cyno T cell binding EC50 against human T cell binding EC50
row,Binder,Cyno:Hu Binding EC50 Ratio
1,B1,6.4 ratio
2,B2,7.1 ratio
3,B3,4.6 ratio
4,B4,8.6 ratio
5,B5,3.7 ratio

# Molecular target: T1, human GITR
# Assay: flow cytometry, human T cell binding
row,Binder,EC50
1,B1,27 ng/mL
2,B2,26 ng/mL
3,B3,33 ng/mL
4,B4,35 ng/mL
5,B5,164 ng/mL

# From patent US20150064204A1 (Amgen, published 2015)
